Read-outs that look alike come from different tables or passages of the source. Square brackets hold non-standard residues; d marks the D form. Peptide text beside a SMILES is read from it. * marks the point of attachment. HYNIC = NNc1ccc(C(=O)*)cn1; AEEA = NCCOCCOCC(=O)O
Tests used:
[1] = In vivo biodistribution study (ex vivo organ counting); parameters: species or system mice; conditions: female, mouse, iv, total radioactivity, mean ± SD, n = 3; for tissue to tissue ratio at 0.5 h / tissue to tissue ratio at 1 h / tissue to tissue ratio at 2 h / tissue to tissue ratio at 4 h: athymic nude; for tissue to tissue ratio at 0.5 h: 0.5h after i.v.; for tissue to tissue ratio at 1 h: 1h after i.v.; for tissue to tissue ratio at 2 h: 2h after i.v.; for tissue to tissue ratio at 4 h: 4h after i.v.
Procedure: (§1) All animal experiments were approved by Jilin University Health Science Center Animal Care and Use Committee. Human breast carcinoma cell line MDA-MB-231 with high MT1-MMP expression and human lung adenocarcinomaepithelial cell line A549 with low MT1-MMP expression were cultured in DMEM medium containing 10% (v/v) fetal bovine serum (Invitrogen) supplemented with penicillin (100 μg/mL) and streptomycin (100 μg/mL) at 37°C with 5% CO2. MDA-MB-231 and A549 tumor models were established by subcutaneous injection of 5×10^6 cells into the upper right front flank of female athymic nude mice (Department of Experimental Animal, Peking University Health Science Center). Tumor growth was monitored by caliper measurements three times a week after the tumors are palpable. The mice were used for SPET/CT imaging when the tumor volume reached about 200 mm3 (about 14 days after tumor inoculations). The tumor volume was determined as the formula: V = a × (b^2)/2, where a and b are the length and width of each tumor in mm respectively. During the injection and image acquisition process, the mice were anesthetized with 2.5% isoflurane in oxygen delivered at a flow rate of 1.5 L/min.
Animals were divided into 4 groups (n = 3) for 4 time points with approximately equal distribution of tumor sizes on the day before the study. At 0.5, 1, 2, and 4 h after intravenous administration of [^99mTc]-(HYNIC-AF7P)(tricine)(TPPTS), MDA-MB-231 tumor bearing mice were euthanized. […] The organ uptake was calculated as a percentage of the injected dose per gram of wet tissue (%ID/g).

[2] = Partition coefficient (Log P), n-octanol / phosphate buffer; assay type: physicochemical; conditions: shake-flask, equal volume mixture of n-octanol and phosphate buffer (25 mM, pH = 7.4); mean ± SD
Procedure: [^99mTc]-(HYNIC-AF7P)(tricine)(TPPTS) was prepared in two steps. First, HYNIC-AF7P was synthesized (Fig 1) and reacted with Na^99mTcO4 in the presence of excess tricine and SnCl2 to form the intermediate [^99mTc]-(HYNIC-AF7P)(tricine)2, which was then allowed to react with TPPTS to form the ternary ligand complex [^99mTc](HYNIC-AF7P)(tricine)(TPPTS). […] The HPLC retention time was 9.2 min for [^99mTc](HYNIC-AF7P)(tricine)(TPPTS) and the specific activity of final product was 1200 mCi/μmol. The partition coefficient of [^99mTc]-(HYNIC-AF7P)(tricine)(TPPTS) was determined in an equal volume mixture of noctanoland phosphate buffer (25 mM, pH = 7.4). Log P value of [^99mTc]-(HYNIC-AF7P)(tricine)(TPPTS)was -2.39±0.06.

[3] = test system: MT1-MMP-positive MDA-MB-231 tumor; assay: SPECT imaging of MDA-MB-231 tumor-bearing mice; assay type: in vivo; conditions: mean ± SD; for tumor uptake (SPECT ROI), blocking: 200 μg unlabeled AF7P injected 30 min ahead of tracer; for tumor uptake (SPECT ROI), unblocked: i.v.
Procedure: as §1
The imaging study was performed using the female BALB/c nude mice bearing the MDA-MB-231 tumors and A549 tumors. Each tumor-bearing mouse was administered intravenously with [^99mTc]-(HYNIC-AF7P)(tricine)(TPPTS) (22.2 MBq/mice) in 0.1 mL saline. For blocking test, 200 μg free AF7P was intravenously injected into MDA-MB-231 tumor bearing mice 30 min before [^99mTc]-(HYNIC-AF7P)(tricine)(TPPTS) was injected. Animals were placed prone on a two-head γ-camera (SIEMENS, E. CAM) equipped with a parallel-hole, low-energy, and high-resolution collimator. Posterior images were acquired at 0.5, 2 and 4 hours post injection (p.i.). The acquisition count limits were set at 700k. After completion of imaging, animals were sacrificed by cervical dislocation.

[4] = tumor and pancreas, read-out: Tumor/Pancreas ratio
[5] = tumor/blood, read-out: Tumor/Blood ratio
[6] = tumor/bone, read-out: Tumor/Bone ratio
[7] = tumor/heart, read-out: Tumor/Heart ratio
[8] = tumor/kidney, read-out: Tumor/Kidney ratio
[9] = tumor/liver, read-out: Tumor/Liver ratio
[10] = tumor/lung, read-out: Tumor/Lung ratio
[11] = tumor/muscle, read-out: Tumor/Muscle ratio
[12] = tumor/spleen, read-out: Tumor/Spleen ratio

CC(C)C[C@H](NC(=O)[C@H](Cc1ccccc1)NC(=O)[C@@H](NC(=O)[C@H](CCCCN)NC(=O)[C@@H](NC(=O)[C@H](CC(N)=O)NC(=O)[C@H](Cc1c[nH]cn1)NC(=O)[C@H](CC(C)C)NC(=O)[C@H](Cc1c[nH]cn1)NC(=O)[C@H](CCCCN)NC(=O)[C@H](Cc1c[nH]c2ccccc12)NC(=O)[C@H](Cc1c[nH]cn1)NC(=O)c1ccc(NN)nc1)[C@@H](C)O)[C@@H](C)O)C(=O)NCCOCCOCC(=O)O [[^99mTc]-(HYNIC-AF7P)(tricine)(TPPTS), metal not drawn] ({HYNIC}-HWKHLHNTKTFL[AEEA]-OH)
tissue to tissue ratio at 0.5 h [1, 4]: 4.4 ± 0.43
tissue to tissue ratio at 1 h [1, 4]: 4.98 ± 0.16
tissue to tissue ratio at 2 h [1, 4]: 6.28 ± 0.7
tissue to tissue ratio at 4 h [1, 4]: 5.67 ± 0.82
tissue to tissue ratio at 0.5 h [1, 5]: 9.27 ± 0.28
tissue to tissue ratio at 1 h [1, 5]: 9.36 ± 0.73
tissue to tissue ratio at 2 h [1, 5]: 11.1 ± 0.74
tissue to tissue ratio at 4 h [1, 5]: 5.54 ± 0.55
tissue to tissue ratio at 0.5 h [1, 6]: 4.21 ± 0.2
tissue to tissue ratio at 1 h [1, 6]: 4.5 ± 0.51
tissue to tissue ratio at 2 h [1, 6]: 5.01 ± 0.38
tissue to tissue ratio at 4 h [1, 6]: 2.6 ± 0.15
tissue to tissue ratio at 0.5 h [1, 7]: 1.49 ± 0.23
tissue to tissue ratio at 1 h [1, 7]: 1.56 ± 0.26
tissue to tissue ratio at 2 h [1, 7]: 2.23 ± 0.2
tissue to tissue ratio at 4 h [1, 7]: 1.66 ± 0.21
tissue to tissue ratio at 0.5 h [1, 8]: 0.38 ± 0.01
tissue to tissue ratio at 1 h [1, 8]: 0.35 ± 0.01
tissue to tissue ratio at 2 h [1, 8]: 0.45 ± 0.04
tissue to tissue ratio at 4 h [1, 8]: 0.24 ± 0.02
tissue to tissue ratio at 0.5 h [1, 9]: 0.65 ± 0.06
tissue to tissue ratio at 1 h [1, 9]: 0.67 ± 0.07
tissue to tissue ratio at 2 h [1, 9]: 0.75 ± 0.05
tissue to tissue ratio at 0.5 h [1, 10]: 1.6 ± 0.18
tissue to tissue ratio at 1 h [1, 10]: 1.81 ± 0.34
tissue to tissue ratio at 2 h [1, 10]: 2.17 ± 0.14
tissue to tissue ratio at 4 h [1, 10]: 1.51 ± 0.3
tissue to tissue ratio at 0.5 h [1, 11]: 3.77 ± 0.42
tissue to tissue ratio at 1 h [1, 11]: 3.86 ± 0.75
tissue to tissue ratio at 2 h [1, 11]: 4.17 ± 0.49
tissue to tissue ratio at 4 h [1, 11]: 2.02 ± 0.09
tissue to tissue ratio at 0.5 h [1, 12]: 3.75 ± 0.46
tissue to tissue ratio at 1 h [1, 12]: 3.66 ± 0.58
tissue to tissue ratio at 2 h [1, 12]: 3.94 ± 0.57
tissue uptake at 0.5 h ([1]; tumor, 0.5 h after i.v. administration, MDA-MB-231 xenograft, BALB/c nude mice, read-out: Tumor uptake (biodistribution)): 3.37 ± 0.27 %ID/g
tissue uptake at 1 h ([1]; tumor, 1 h after i.v. administration, MDA-MB-231 xenograft, BALB/c nude mice, read-out: Tumor uptake (biodistribution)): 2.59 ± 0.21 %ID/g
tissue uptake at 2 h ([1]; tumor, 2 h after i.v. administration, MDA-MB-231 xenograft, BALB/c nude mice, read-out: Tumor uptake (biodistribution)): 2.18 ± 0.11 %ID/g
tissue uptake at 4 h ([1]; tumor, 4 h after i.v. administration, MDA-MB-231 xenograft, BALB/c nude mice, read-out: Tumor uptake (biodistribution)): 1.05 ± 0.07 %ID/g
Log P value (partition coefficient) [2]: -2.39±0.06
tumor uptake (SPECT ROI), blocking ([3]; 0.5 h p.i.): 1.15±0.05 %ID/g
tumor uptake (SPECT ROI), unblocked ([3]; 0.5 h p.i.): 4.15±0.27 %ID/g
tumor uptake (SPECT ROI), blocking ([3]; 2 h p.i.): 1.05±0.12 %ID/g
tumor uptake (SPECT ROI), unblocked ([3]; 2 h p.i.): 2.58±0.21 %ID/g
tumor uptake (SPECT ROI), blocking ([3]; 4 h p.i.): 1.03±0.34 %ID/g
tumor uptake (SPECT ROI), unblocked ([3]; 4 h p.i.): 1.59±0.11 %ID/g
